The target of experiment [1] is T1, PD1 naturally expressed by activated human lymphocytes (PHA-activated PBMC) (human, UniProt Q15116 25-288). In words: cell-based or functional assay.
Experiment [2] addresses T2, human CD28-hFc (human, UniProt P10747 19-152).
T2 construct: Commercial protein; also called CD28 (ACRO); not shown: human Fc (hFc)
The experiment in a line: ELISA, antigen coated at 1 µg/mL. The text has this: (§1) A horse radish peroxidase (HRP)-coupled anti-human IgG (F) was used as the secondary antibody. After developed with TMB and terminated, it was read for an OD450 value with a microplate reader.
(ELISA stands for enzyme-linked immunosorbent assay.)

Experiment [3] concerns the target T3, human ICOS-hFc (human, UniProt Q9Y6W8 21-140).
T3 construct: Commercial protein; also called ICOS (ACRO); not shown: human Fc (hFc)
T3 sequence (looked up): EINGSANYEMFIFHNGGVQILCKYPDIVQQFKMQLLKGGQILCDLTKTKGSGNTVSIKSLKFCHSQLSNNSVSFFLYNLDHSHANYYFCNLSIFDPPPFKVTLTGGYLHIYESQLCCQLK
In words: ELISA, antigen coated at 1 µg/mL.
Excerpt: as §1

Experiment [4] has as its target T4, human CTLA4-hFc (human, UniProt P16410 37-162, limits assumed).
T4 construct: Commercial protein; also called CTLA-4 (ACRO); not shown: human Fc (hFc)
The experiment in a line: ELISA, antigen coated at 1 µg/mL.
Excerpt: as §1

The target in experiment [5] is T5, recombinant human PD-1 expressed on the surface of CHO cells (CHO-hPD1) (human, UniProt Q15116 25-288).
T5 construct: whole, on cells; also called CHO-PD1; hPD1-transfected CHO cells
In words: flow cytometry on CHO-hPD1 cells. On the procedure:
(§2) A CHO (Chinese Hamster Ovary Cells) cell line, CHO-hPD1, capable of expressing a recombinant human PD-1 on the cell surface, and a CHO cell line, CHO-cynoPD1, capable of expressing a monkey PD1 on the cell surface were prepared by recombinant technology. […] The specific method was: In order to evaluate the binding of the humanized antibody to the CHO-hPD1, 2×10⁵ CHO-hPD1 cells and the humanized antibody diluted in concentration gradient (with an initial concentration of 30 μg/mL, and diluted in 3-fold gradient) were added into a 96-well plate, and incubated at 4° C. for 30 minutes. The cells were washed once with a buffer (PBS containing 3% BSA) and then added with a PE-labeled anti-human IgG (Fc) Ab (Biolegend) fluorescent secondary antibody, incubated at 4° C. for 30 minutes, then washed once with the buffer and subsequently resuspended in PBS. Thereafter, the cell suspension was subjected to flow cytometric analysis by CytoFlex (Beckman flow cytometer), and the quantity of the antibody bound to the cells was measured according to the mean fluorescence intensity (MFI) of the staining. The same method was used for evaluating the binding of the humanized antibody to the CHO-cyno cells.

In experiment [6] the target is T6, monkey PD1 expressed on the surface of CHO cells (CHO-cynoPD1) (monkey).
T6 construct: whole, on cells
The experiment in a line: flow cytometry on CHO-cynoPD1 cells. On the procedure:
as §2
In general terms: In flow cytometry, cells or beads pass a laser one at a time.

Experiment [7] has as its target T1, PD1 naturally expressed by activated …. The experiment in a line: flow cytometry on PHA-activated human PBMC. On the procedure: After being obtained from fresh human peripheral blood by gradient centrifugation of lymphatic separation medium, the PBMCs were adjusted to the density of 1×10⁶ cells/mL and inoculated into T75, and meanwhile added with PHA-L (Sigma) at a final concentration of 1 μg/mL to stimulate the proliferation of lymphocytes. After being allowed to stand in an incubator at 37° C. and 5% CO₂ for 3 days, the cell suspension was taken out and centrifuged. The supernatant was discarded, and the precipitate was resuspended in a buffer (PBS containing 3% BSA) and added into a 96-well U-shaped plate at 2E5/well, then added with different concentration gradients of the humanized antibody, incubated at 4° C. for 30 minutes, and then centrifuged at 300 g for 5 minutes. The cells were washed once with the buffer, and added with a PE-labeled goat anti-human IgG fluorescent antibody (Biolegend), and incubated at 4° C. for 30 minutes. Then cells were centrifuged and washed once, resuspended in PBS, and subsequently analyzed by a CytoFlex flow cytometer to detect the quantity of the antibody bound to the PBMC.

The target of another experiment is T7, human PD-1-hFc (human, UniProt Q15116 25-167).
T7 construct: Commercial protein; also called PD-1 (ACRO); not shown: human Fc (hFc)
The experiment in a line: ELISA, antigen coated at 1 µg/mL, antibody 10 µg/mL.
Excerpt: as §1

The target in experiment [8] is T2, human CD28-hFc. Described as above.
Excerpt: as §1

For experiment [9], the target named is T3, human ICOS-hFc. The description is as above.
Excerpt: as §1

Experiment [10] concerns the target T4, human CTLA4-hFc. The description is as above.
Excerpt: as §1

The target of experiment [11] is T8, PD-1-his (ACRO) recombinant protein (UniProt Q15116 25-167).
T8 construct: Commercial protein; not shown: his tag
In words: BLI (ForteBio Octet), PD-1-his loaded on sensor, antibody in solution. On the procedure:
Finally, analysis was conducted by utilizing a kinetic model, and data processing was conducted.
(In general: Biolayer interferometry detects binding as a change in optical thickness at a sensor tip.)

Experiment [12] has as its target T5, recombinant human PD-1 expressed on the …. The experiment in a line: flow cytometry, blocking of PD-L1-mFc (0.2 µg/mL) binding to CHO-hPD1. Here is the method:
(§3) The ability of the anti-PD-1 humanized antibody to block the binding of the ligand to a transfected CHO cells which could stably express PD-1 on the surface was analyzed by a flow cytometer.
(§4) The CHO-PD1 cells were resuspended with a buffer (PBS containing 3% BSA), and adjusted to the density of 2×10⁶ cells/mL. The cell suspension was added into a 96-well U-shaped plate at 100 μL/well and centrifuged at 300 g for 5 minutes, and then the supernatant was discarded.
(§5) The cells were centrifuged at 300 g for 5 minutes, washed once with the buffer, added with a PE-labeled goat anti-mouse IgG fluorescent antibody (Biolegend), and incubated at 4° C. for 30 minutes. The cells were centrifuged and washed once, then resuspended in PBS, and subsequently analyzed by a CytoFlex flow cytometer to detect the quantity of the ligand protein bound to the cells, and calculate the IC₅₀ value of the PD-1 antibody in blocking the binding.

The target is the same in experiment [13]. In words: flow cytometry, blocking of PD-L2-mFc (0.2 µg/mL) binding to CHO-hPD1. Here is the method:
as §3, §4, §5

Where only a bound is given, the exact number is not on record here.

T8 sequence (Q15116 25-167 limits assumed): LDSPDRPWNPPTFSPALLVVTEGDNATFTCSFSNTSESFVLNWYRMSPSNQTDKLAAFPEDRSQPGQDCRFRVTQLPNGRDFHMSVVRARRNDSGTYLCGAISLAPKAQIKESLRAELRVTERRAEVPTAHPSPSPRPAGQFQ
T7 sequence (Q15116 25-167 limits assumed): as above
T4 sequence (P16410 37-162 limits assumed): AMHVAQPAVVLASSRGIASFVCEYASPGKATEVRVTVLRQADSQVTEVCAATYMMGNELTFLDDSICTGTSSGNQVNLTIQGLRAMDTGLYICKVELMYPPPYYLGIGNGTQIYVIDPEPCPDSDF
T1 sequence (Q15116 25-288): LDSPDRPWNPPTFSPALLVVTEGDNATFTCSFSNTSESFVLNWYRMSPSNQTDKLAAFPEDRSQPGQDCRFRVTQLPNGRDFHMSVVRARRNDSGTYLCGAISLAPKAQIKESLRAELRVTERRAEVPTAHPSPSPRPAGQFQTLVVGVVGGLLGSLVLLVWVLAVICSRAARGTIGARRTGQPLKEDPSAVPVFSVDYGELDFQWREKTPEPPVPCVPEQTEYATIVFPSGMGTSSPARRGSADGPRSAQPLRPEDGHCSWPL
T5 sequence (Q15116 25-288): as above

B1: anti-PD-1 humanized antibody c43 (antibody, V domains shown)
VH: QVQLVQSGAEVKKPGASVKVSCKASGYTFTTYYMYWVRQAPGQGLEWIGGINPSNGGTNYAEKFKGRVTLTVDTSTSTAYMELSSLRSEDTAVYYCTRRDSNYDGGFDYWGQGTTVTVSS
VL: DIQMTQSPSSLSASVGDRVTITCRASKSVSTSGYSYMHWYQQKPGKAPKLLIYLAYHLESGVPSRFSGSGSGTDFTLTISSLQPEDFATYYCQHSWELPITFGQGTKLEIKR
On to B1, for which the “IFNγ EC50 (mixed lymphocyte reaction)” value in experiment [1] was 2.73 nM. Moreover, the “IL2 EC50 (mixed lymphocyte reaction)” value in experiment [1] came out at 2.79 nM. Moreover, the binding result in the experiment with human CD28-hFc [2], with human ICOS-hFc [3] and with human CTLA4-hFc [4] was “no binding (tested: 10 µg/mL)” throughout. The half-maximal effective concentration (EC50) (usually the concentration at which the effect is half-maximal) in experiment [5] came to 1.58 nM; in experiment [6], 0.894 nM; in [7], 0.281 nM. For the same molecule, the OD450 was 1.23 OD450 in the experiment with human PD-1-hFc, 0.189 OD450 with human CD28-hFc [8], 0.131 OD450 with human ICOS-hFc [9] and 0.255 OD450 with human CTLA4-hFc [10]. Further, the Kd (commonly the equilibrium constant for the complex coming apart) in experiment [11] was less than 0.001 nM. In addition, the koff (usually a measure of how fast the partners let go of each other) in [11] is less than 1e-07 s⁻¹. Further, the association rate constant (kon) (usually a measure of how fast the partners come together) in experiment [11] is 984000 M⁻¹ s⁻¹. In addition, the concentration for half-maximal inhibition (IC50) – broadly, the midpoint of a concentration-inhibition curve – in experiment [12] is 3.14 nM; in experiment [13], 7.95 nM.

B2: anti-PD-1 humanized antibody c22 (antibody, V domains shown)
VH: QVQLVQSGAEVKKPGASVKVSCKASGYTFTTYYMYWVRQAPGQGLEWMGGINPSNGGTNFNEKFKSRVTMTVDKSTSTAYMELSSLRSEDTAVYYCTRRDSNYDGGFDYWGQGTTVTVSS
VL: DIQLTQSPSSLSASVGDRATITCRASKSVSTSGYSYMHWYQQKPGKAPKLLIYLAYHLESGVPSRFSGSGSGTDFTLTISSVQPEDFATYYCQHSWELPITFGQGTKLEIKR
B2: in experiment [1], the “IFNγ EC50 (mixed lymphocyte reaction)” value turned out to be 0.727 nM. In addition, in experiment [1], the “IL2 EC50 (mixed lymphocyte reaction)” value is 13.3 nM. Also, the binding result in the experiment with human CD28-hFc [2], with human ICOS-hFc [3] and with human CTLA4-hFc [4] was “no binding (tested: 10 µg/mL)” throughout. The EC50 in [5] was 1.68 nM; in experiment [6] it was 0.63 nM; in experiment [7] it was 0.141 nM. The OD450 with human PD-1-hFc came to 1.33 OD450; in the experiment with human CD28-hFc [8] it was 0.18 OD450; in the experiment with human ICOS-hFc [9], 0.117 OD450; in the experiment with human CTLA4-hFc [10] it was 0.209 OD450. Also, the Kd in experiment [11] was less than 0.001 nM. The koff in experiment [11] is less than 1e-07 s⁻¹. In addition, the kon in [11] was 985000 M⁻¹ s⁻¹. For the same molecule, the half-inhibitory concentration (IC50) worked out at 3.1 nM in [12] and 6.88 nM in experiment [13].

B3: anti-PD-1 humanized antibody c53 (antibody, V domains shown)
VH: QVQLVQSGAEVKKPGASVKVSCKASGYTFTTYYMYWVRQAPGQGLEWMGGINPSNGGTNYAQKFQGRATMTVDTSTSTAYMELSSLRSEDTAVYYCTRRDSNYDGGFDYWGQGTTVTVSS
VL: DIQMTQSPSSLSASVGDRVTITCRASKSVSTSGYSYMHWYQQKPGKAPKLLIYLAYHLESGVPSRFSGSGSGTDFTLTISSLQPEDFATYYCQHSWELPITFGQGTKLEIKR
Regarding B3, the “IFNγ EC50 (mixed lymphocyte reaction)” value in experiment [1] was determined as 6.65 nM. For the same molecule, the “IL2 EC50 (mixed lymphocyte reaction)” value in experiment [1] stood at 1.88 nM. Also, the binding result with human CD28-hFc [2], with human ICOS-hFc [3] and with human CTLA4-hFc [4] was “no binding (tested: 10 µg/mL)” throughout. Further, the EC50 in experiment [5] was determined as 1.71 nM; in experiment [6], 0.743 nM; in [7], 0.213 nM. The OD450 in the experiment with human PD-1-hFc worked out at 1.48 OD450; in the experiment with human CD28-hFc [8] it was 0.176 OD450; with human ICOS-hFc [9], 0.133 OD450; with human CTLA4-hFc [10] it was 0.239 OD450. Besides, the Kd in [11] is less than 0.001 nM. Besides, in experiment [11], the koff is less than 1e-07 s⁻¹. For the same molecule, in experiment [11], the kon came out at 979000 M⁻¹ s⁻¹. The half-maximal inhibitory concentration (IC50) in [12] was 3.02 nM; in experiment [13], 7.05 nM.
